Numbering of substitutions follows the chain as printed.
B1: CAP256V2LS-10E8-5 (bispecific antibody)
heavy chain: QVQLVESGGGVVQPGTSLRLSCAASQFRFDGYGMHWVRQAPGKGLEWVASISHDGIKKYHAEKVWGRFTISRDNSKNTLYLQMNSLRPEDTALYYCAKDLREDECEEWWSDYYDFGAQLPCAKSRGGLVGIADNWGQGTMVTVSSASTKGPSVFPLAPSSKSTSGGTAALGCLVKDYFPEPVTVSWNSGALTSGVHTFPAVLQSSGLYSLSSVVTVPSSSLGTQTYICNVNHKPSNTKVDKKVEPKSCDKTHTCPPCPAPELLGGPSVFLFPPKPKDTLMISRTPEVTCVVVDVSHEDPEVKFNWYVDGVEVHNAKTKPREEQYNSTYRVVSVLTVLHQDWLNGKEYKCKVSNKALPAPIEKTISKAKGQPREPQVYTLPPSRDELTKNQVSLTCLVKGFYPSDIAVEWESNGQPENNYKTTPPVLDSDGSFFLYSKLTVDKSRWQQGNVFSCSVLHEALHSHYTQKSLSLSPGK
light chain (10E8v4 scFv, linker, CAP256V2LS LC): EVRLVESGGGLVKPGGSLRLSCSASGFDFDNAWMTWVRQPPGKGLEWVGRITGPGEGWSVDYAESVKGRFTISRDNTKNTLYLEMNNVRTEDTGYYFCARTGKYYDFWSGYPPGEEYFQDWGQGTLVIVSSGGGGSGGGGSGGGGSSELTQDPAVSVALKQTVTITCRGDSLRSHYASWYQKKPGQAPVLLFYGKNNRPSGIPDRFSGSASGNRASLTITGAQAEDEADYYCSSRDKSGSRLSVFGGGTKLTVDKTHTGDKTHTQSVLTQPPSVSAAPGQKVTISCSGNTSNIGNNFVSWYQQRPGRAPQLLIYETDKRPSGIPDRFSASKSGTSGTLAITGLQTGDEADYYCATWAASLSSARVFGTGTQVIVLGQPKVNPTVTLFPPSSEELQANKATLVCLISDFYPGAVTVAWKADSSPVKAGVETTTPSKQSNNKYAASSYLSLTPEQWKSHRSYSCQVTHEGSTVEKTVAPTECS
B2: CAP256V2LS-VRC01-3 (bispecific antibody)
heavy chain: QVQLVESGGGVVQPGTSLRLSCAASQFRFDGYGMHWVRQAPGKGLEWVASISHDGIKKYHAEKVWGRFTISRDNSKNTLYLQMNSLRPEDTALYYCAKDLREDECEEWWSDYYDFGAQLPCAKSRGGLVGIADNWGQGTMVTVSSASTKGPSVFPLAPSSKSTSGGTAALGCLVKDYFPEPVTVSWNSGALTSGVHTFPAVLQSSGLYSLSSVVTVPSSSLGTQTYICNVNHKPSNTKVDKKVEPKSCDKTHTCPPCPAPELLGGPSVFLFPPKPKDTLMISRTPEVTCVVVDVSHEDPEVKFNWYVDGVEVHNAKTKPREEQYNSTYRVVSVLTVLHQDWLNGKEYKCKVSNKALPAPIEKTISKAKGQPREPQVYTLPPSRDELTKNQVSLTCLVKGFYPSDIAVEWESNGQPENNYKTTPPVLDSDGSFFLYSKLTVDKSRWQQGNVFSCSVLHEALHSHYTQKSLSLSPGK
light chain (VRC01 scFv, linker, CAP256V2LS LC): QVQLVQSGGQMKKPGESMRISCRASGYEFIDCTLNWIRLAPGKRPEWMGWLKPRGGAVNYARPLQGRVTMTRDVYSDTAFLELRSLTVDDTAVYFCTRGKNCDYNWDFEHWGRGTPVIVSSGGGGSGGGGSGGGGSLTQSPGTLSLSPGETAIISCRTSQYGSLAWYQQRPGQAPRLVIYSGSTRAAGIPDRFSGSRWGPDYNLTISNLESGDFGVYYCQQYEFFGQGTKVQVGGSGGGGSGGGGSGGQSVLTQPPSVSAAPGQKVTISCSGNTSNIGNNFVSWYQQRPGRAPQLLIYETDKRPSGIPDRFSASKSGTSGTLAITGLQTGDEADYYCATWAASLSSARVFGTGTQVIVLGQPKVNPTVTLFPPSSEELQANKATLVCLISDFYPGAVTVAWKADSSPVKAGVETTTPSKQSNNKYAASSYLSLTPEQWKSHRSYSCQVTHEGSTVEKTVAPTECS
B3: CAP256V2LS-10E8-4 (bispecific antibody)
heavy chain: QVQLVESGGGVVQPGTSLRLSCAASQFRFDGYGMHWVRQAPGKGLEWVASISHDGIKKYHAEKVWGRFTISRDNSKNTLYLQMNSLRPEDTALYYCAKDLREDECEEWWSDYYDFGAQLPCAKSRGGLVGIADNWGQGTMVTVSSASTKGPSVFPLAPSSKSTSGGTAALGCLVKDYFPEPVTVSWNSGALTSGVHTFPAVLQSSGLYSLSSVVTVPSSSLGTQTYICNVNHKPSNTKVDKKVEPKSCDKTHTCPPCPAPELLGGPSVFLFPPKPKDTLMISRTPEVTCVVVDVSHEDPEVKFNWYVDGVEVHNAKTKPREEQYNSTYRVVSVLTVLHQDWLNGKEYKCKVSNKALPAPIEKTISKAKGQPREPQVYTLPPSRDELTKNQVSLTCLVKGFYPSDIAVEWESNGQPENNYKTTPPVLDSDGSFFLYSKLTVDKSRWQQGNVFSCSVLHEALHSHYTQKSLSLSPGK
light chain (10E8v4 scFv, linker, CAP256V2LS LC): EVRLVESGGGLVKPGGSLRLSCSASGFDFDNAWMTWVRQPPGKGLEWVGRITGPGEGWSVDYAESVKGRFTISRDNTKNTLYLEMNNVRTEDTGYYFCARTGKYYDFWSGYPPGEEYFQDWGQGTLVIVSSGGGGSGGGGSGGGGSSELTQDPAVSVALKQTVTITCRGDSLRSHYASWYQKKPGQAPVLLFYGKNNRPSGIPDRFSGSASGNRASLTITGAQAEDEADYYCSSRDKSGSRLSVFGGGTKLTVDKTHTQSVLTQPPSVSAAPGQKVTISCSGNTSNIGNNFVSWYQQRPGRAPQLLIYETDKRPSGIPDRFSASKSGTSGTLAITGLQTGDEADYYCATWAASLSSARVFGTGTQVIVLGQPKVNPTVTLFPPSSEELQANKATLVCLISDFYPGAVTVAWKADSSPVKAGVETTTPSKQSNNKYAASSYLSLTPEQWKSHRSYSCQVTHEGSTVEKTVAPTECS
B4: CAP256V2LS-10E8-6 (bispecific antibody)
heavy chain: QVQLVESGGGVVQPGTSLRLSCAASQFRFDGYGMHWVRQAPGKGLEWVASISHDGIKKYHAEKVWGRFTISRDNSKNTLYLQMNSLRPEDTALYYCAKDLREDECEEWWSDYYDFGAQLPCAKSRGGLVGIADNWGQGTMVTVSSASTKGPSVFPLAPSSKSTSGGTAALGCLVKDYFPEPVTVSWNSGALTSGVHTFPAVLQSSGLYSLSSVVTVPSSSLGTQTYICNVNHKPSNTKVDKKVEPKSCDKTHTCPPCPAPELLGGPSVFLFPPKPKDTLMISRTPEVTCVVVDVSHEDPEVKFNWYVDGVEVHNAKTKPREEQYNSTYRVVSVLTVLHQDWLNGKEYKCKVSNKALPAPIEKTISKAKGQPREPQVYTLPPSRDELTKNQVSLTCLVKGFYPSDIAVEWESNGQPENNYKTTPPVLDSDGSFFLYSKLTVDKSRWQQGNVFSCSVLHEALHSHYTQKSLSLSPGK
light chain (10E8v4 scFv, linker, CAP256V2LS LC): EVRLVESGGGLVKPGGSLRLSCSASGFDFDNAWMTWVRQPPGKGLEWVGRITGPGEGWSVDYAESVKGRFTISRDNTKNTLYLEMNNVRTEDTGYYFCARTGKYYDFWSGYPPGEEYFQDWGQGTLVIVSSGGGGSGGGGSGGGGSSELTQDPAVSVALKQTVTITCRGDSLRSHYASWYQKKPGQAPVLLFYGKNNRPSGIPDRFSGSASGNRASLTITGAQAEDEADYYCSSRDKSGSRLSVFGGGTKLTVDKTHTGDKTHTGDKTHTQSVLTQPPSVSAAPGQKVTISCSGNTSNIGNNFVSWYQQRPGRAPQLLIYETDKRPSGIPDRFSASKSGTSGTLAITGLQTGDEADYYCATWAASLSSARVFGTGTQVIVLGQPKVNPTVTLFPPSSEELQANKATLVCLISDFYPGAVTVAWKADSSPVKAGVETTTPSKQSNNKYAASSYLSLTPEQWKSHRSYSCQVTHEGSTVEKTVAPTECS
B5: CAP256V2LS-J3-1 (bispecific antibody)
heavy chain: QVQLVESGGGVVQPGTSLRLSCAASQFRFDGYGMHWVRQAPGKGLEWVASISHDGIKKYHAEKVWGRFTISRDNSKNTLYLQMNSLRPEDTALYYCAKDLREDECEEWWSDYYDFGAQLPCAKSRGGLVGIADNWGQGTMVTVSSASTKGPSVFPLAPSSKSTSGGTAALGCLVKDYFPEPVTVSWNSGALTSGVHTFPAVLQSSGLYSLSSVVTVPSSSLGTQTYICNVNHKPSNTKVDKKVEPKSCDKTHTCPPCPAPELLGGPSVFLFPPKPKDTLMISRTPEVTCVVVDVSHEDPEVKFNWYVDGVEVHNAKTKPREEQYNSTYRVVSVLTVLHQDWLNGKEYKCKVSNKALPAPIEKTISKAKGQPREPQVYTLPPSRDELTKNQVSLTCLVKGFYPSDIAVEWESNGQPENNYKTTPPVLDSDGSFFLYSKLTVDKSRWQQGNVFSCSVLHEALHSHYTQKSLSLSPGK
light chain (J3 VHH, linker, CAP256V2LS LC): EVQLVESGGGLVQAGGFLRLSCELRGSIFNQYAMAWFRQAPGKEREFVAGMGAVPHYGEFVKGRFTISRDNAKSTVYLQMSSLKPEDTAIYFCARSKSTYISYNSNGYDYWGRGTQVTVSSGGSGGQSVLTQPPSVSAAPGQKVTISCSGNTSNIGNNFVSWYQQRPGRAPQLLIYETDKRPSGIPDRFSASKSGTSGTLAITGLQTGDEADYYCATWAASLSSARVFGTGTQVIVLGQPKVNPTVTLFPPSSEELQANKATLVCLISDFYPGAVTVAWKADSSPVKAGVETTTPSKQSNNKYAASSYLSLTPEQWKSHRSYSCQVTHEGSTVEKTVAPTECS
B6: CAP256V2LS-J3-4 (bispecific antibody)
heavy chain: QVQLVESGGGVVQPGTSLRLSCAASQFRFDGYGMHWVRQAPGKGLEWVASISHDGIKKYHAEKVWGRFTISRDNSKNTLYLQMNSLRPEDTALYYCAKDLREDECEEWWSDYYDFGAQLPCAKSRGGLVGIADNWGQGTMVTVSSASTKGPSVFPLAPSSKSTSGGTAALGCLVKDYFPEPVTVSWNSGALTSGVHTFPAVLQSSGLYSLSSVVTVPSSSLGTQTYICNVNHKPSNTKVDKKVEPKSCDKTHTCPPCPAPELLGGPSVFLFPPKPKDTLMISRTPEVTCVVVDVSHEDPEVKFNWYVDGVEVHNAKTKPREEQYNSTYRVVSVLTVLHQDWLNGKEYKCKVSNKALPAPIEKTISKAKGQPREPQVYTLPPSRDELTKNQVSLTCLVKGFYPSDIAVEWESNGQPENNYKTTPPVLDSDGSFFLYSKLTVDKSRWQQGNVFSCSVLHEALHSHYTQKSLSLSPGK
light chain (J3 VHH, linker, CAP256V2LS LC): B5 light chain (J3 VHH, linker, CAP256V2LS LC) with G122D, G123K, S124T, G125H, G126T
B7: CAP256V2LS-VRC01-2 (bispecific antibody)
heavy chain: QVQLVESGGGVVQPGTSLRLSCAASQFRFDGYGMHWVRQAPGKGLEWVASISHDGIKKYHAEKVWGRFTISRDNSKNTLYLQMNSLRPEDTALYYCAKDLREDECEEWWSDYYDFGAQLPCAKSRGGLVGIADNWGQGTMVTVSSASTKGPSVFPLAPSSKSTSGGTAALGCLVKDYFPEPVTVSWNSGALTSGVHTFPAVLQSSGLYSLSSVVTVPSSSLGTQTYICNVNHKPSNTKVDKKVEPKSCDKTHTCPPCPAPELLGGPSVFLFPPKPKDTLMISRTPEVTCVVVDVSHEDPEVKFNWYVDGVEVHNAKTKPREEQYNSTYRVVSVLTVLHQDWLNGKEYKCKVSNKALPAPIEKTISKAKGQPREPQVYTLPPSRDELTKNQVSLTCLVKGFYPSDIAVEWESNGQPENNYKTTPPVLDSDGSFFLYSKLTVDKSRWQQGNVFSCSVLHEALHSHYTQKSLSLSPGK
light chain (VRC01 scFv, linker, CAP256V2LS LC): QVQLVQSGGQMKKPGESMRISCRASGYEFIDCTLNWIRLAPGKRPEWMGWLKPRGGAVNYARPLQGRVTMTRDVYSDTAFLELRSLTVDDTAVYFCTRGKNCDYNWDFEHWGRGTPVIVSSGGGGSGGGGSGGGGSLTQSPGTLSLSPGETAIISCRTSQYGSLAWYQQRPGQAPRLVIYSGSTRAAGIPDRFSGSRWGPDYNLTISNLESGDFGVYYCQQYEFFGQGTKVQVGGSGGGGSGGQSVLTQPPSVSAAPGQKVTISCSGNTSNIGNNFVSWYQQRPGRAPQLLIYETDKRPSGIPDRFSASKSGTSGTLAITGLQTGDEADYYCATWAASLSSARVFGTGTQVIVLGQPKVNPTVTLFPPSSEELQANKATLVCLISDFYPGAVTVAWKADSSPVKAGVETTTPSKQSNNKYAASSYLSLTPEQWKSHRSYSCQVTHEGSTVEKTVAPTECS
B8: CAP256V2LS-VRC01-5 (bispecific antibody)
heavy chain: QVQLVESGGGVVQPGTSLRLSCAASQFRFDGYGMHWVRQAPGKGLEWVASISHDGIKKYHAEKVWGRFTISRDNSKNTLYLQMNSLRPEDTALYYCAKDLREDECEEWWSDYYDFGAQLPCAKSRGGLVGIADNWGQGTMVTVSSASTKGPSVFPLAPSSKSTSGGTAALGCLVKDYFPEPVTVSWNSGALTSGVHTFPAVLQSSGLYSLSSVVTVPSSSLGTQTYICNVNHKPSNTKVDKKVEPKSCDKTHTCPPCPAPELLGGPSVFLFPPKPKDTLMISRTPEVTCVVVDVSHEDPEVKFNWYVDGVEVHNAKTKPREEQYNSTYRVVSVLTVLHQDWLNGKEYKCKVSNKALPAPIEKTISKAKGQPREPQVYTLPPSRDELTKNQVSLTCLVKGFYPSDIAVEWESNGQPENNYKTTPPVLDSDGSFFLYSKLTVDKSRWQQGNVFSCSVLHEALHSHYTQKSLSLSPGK
light chain (VRC01 scFv, linker, CAP256V2LS LC): B7 light chain (VRC01 scFv, linker, CAP256V2LS LC) with G234D, G235K, S236T, G237H, G238T, G239D, G240K, S241T, G242H, G243T
B9: CAP256V2LS (antibody, V domains shown)
VH: QVQLVESGGGVVQPGTSLRLSCAASQFRFDGYGMHWVRQAPGKGLEWVASISHDGIKKYHAEKVWGRFTISRDNSKNTLYLQMNSLRPEDTALYYCAKDLREDECEEWWSDYYDFGAQLPCAKSRGGLVGIADNWGQGTMVTVSS
VL: QSVLTQPPSVSAAPGQKVTISCSGNTSNIGNNFVSWYQQRPGRAPQLLIYETDKRPSGIPDRFSASKSGTSGTLAITGLQTGDEADYYCATWAASLSSARVFGTGTQVIVLG
B10: CAP256V2LS-VRC01-1 (bispecific antibody)
heavy chain: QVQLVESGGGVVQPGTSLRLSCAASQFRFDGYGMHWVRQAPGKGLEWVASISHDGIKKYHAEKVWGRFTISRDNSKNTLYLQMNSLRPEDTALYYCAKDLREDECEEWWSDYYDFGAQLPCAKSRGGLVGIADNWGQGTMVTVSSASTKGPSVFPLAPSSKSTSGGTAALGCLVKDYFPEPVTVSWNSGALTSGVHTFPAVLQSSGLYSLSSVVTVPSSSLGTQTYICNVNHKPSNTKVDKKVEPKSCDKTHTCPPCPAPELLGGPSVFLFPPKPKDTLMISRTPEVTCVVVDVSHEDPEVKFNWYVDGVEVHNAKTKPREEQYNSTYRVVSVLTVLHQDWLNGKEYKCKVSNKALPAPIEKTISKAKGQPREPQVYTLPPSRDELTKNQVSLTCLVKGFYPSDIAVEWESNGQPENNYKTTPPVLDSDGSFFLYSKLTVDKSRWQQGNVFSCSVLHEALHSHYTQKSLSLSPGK
light chain (VRC01 scFv, linker, CAP256V2LS LC): QVQLVQSGGQMKKPGESMRISCRASGYEFIDCTLNWIRLAPGKRPEWMGWLKPRGGAVNYARPLQGRVTMTRDVYSDTAFLELRSLTVDDTAVYFCTRGKNCDYNWDFEHWGRGTPVIVSSGGGGSGGGGSGGGGSLTQSPGTLSLSPGETAIISCRTSQYGSLAWYQQRPGQAPRLVIYSGSTRAAGIPDRFSGSRWGPDYNLTISNLESGDFGVYYCQQYEFFGQGTKVQVGGSGGQSVLTQPPSVSAAPGQKVTISCSGNTSNIGNNFVSWYQQRPGRAPQLLIYETDKRPSGIPDRFSASKSGTSGTLAITGLQTGDEADYYCATWAASLSSARVFGTGTQVIVLGQPKVNPTVTLFPPSSEELQANKATLVCLISDFYPGAVTVAWKADSSPVKAGVETTTPSKQSNNKYAASSYLSLTPEQWKSHRSYSCQVTHEGSTVEKTVAPTECS
B11: CAP256V2LS-VRC01-4 (bispecific antibody)
heavy chain: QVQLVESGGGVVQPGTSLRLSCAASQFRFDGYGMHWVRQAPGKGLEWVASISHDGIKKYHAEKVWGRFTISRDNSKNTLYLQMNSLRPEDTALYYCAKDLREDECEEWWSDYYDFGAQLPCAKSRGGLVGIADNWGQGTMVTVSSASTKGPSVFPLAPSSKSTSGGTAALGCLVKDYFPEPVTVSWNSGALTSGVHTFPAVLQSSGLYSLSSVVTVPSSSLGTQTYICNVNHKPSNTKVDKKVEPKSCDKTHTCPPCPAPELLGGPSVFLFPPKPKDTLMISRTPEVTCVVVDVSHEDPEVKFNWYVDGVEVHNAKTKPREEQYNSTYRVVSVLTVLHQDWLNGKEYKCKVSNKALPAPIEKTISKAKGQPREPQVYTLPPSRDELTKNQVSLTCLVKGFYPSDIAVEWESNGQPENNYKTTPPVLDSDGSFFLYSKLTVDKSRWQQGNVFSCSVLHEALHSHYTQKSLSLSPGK
light chain (VRC01 scFv, linker, CAP256V2LS LC): B10 light chain (VRC01 scFv, linker, CAP256V2LS LC) with G234D, G235K, S236T, G237H, G238T
B12: CAP256V2LS-VRC01-6 (bispecific antibody)
heavy chain: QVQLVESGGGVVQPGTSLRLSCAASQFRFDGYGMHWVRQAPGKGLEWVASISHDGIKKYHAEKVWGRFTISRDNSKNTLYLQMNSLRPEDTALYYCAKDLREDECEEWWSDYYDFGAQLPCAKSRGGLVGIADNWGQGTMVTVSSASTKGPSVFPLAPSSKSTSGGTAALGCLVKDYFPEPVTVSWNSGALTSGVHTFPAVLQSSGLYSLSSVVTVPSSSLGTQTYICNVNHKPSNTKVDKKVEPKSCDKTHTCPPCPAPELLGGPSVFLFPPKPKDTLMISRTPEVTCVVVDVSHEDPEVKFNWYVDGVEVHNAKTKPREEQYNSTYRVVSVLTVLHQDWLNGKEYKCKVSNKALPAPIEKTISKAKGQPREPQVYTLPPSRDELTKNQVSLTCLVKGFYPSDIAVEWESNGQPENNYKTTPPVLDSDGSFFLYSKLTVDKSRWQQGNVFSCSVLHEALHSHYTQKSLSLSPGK
light chain (VRC01 scFv, linker, CAP256V2LS LC): QVQLVQSGGQMKKPGESMRISCRASGYEFIDCTLNWIRLAPGKRPEWMGWLKPRGGAVNYARPLQGRVTMTRDVYSDTAFLELRSLTVDDTAVYFCTRGKNCDYNWDFEHWGRGTPVIVSSGGGGSGGGGSGGGGSLTQSPGTLSLSPGETAIISCRTSQYGSLAWYQQRPGQAPRLVIYSGSTRAAGIPDRFSGSRWGPDYNLTISNLESGDFGVYYCQQYEFFGQGTKVQVDKTHTDKTHTDKTHTQSVLTQPPSVSAAPGQKVTISCSGNTSNIGNNFVSWYQQRPGRAPQLLIYETDKRPSGIPDRFSASKSGTSGTLAITGLQTGDEADYYCATWAASLSSARVFGTGTQVIVLGQPKVNPTVTLFPPSSEELQANKATLVCLISDFYPGAVTVAWKADSSPVKAGVETTTPSKQSNNKYAASSYLSLTPEQWKSHRSYSCQVTHEGSTVEKTVAPTECS

What was measured:
[1] = molecular target: HIV-1 Env of strain WITO.33 (Env-pseudotyped virus) (HIV-1); assay: cell-based or functional assay
CAP256 wk34c80 = CAP256 wk34c80 (HIV-1); assay: cell-based or functional assay

Binder | % neutralization, single point, Env-pseudotyped virus on TZM-bl [1] [%] | % neutralization, single point, Env-pseudotyped virus on TZM-bl (CAP256 wk34c80) [%]
B1 | 18 | 100
B2 | 0 | 99
B3 | 10 | 23
B4 | 0 | 100
B5 | 3 | 20
B6 | 86 | 100
B7 | 38 | 41
B8 | 0 | 67
B9 | 0 | 100
B10 | 0 | 77
B11 | 0 | 98
B12 | 0 | 98

— patent US20250197482A1 (UNITED STATES OF AMERICA AS REPRESENTED BY THE SECRETARY …, published 2025)
